Patent US20170065702A1 (CANGENE, published 2017)

Tests used:
MARV Musoke GPe[change] = MARV Musoke GPe[change] (Marburg virus, Musoke strain, UniProt P35253 19-636); test: cross reactivity with GPeΔmuc, summary table
MARV Angola GPe[change] = MARV Angola GPe[change] (Marburg virus, Angola strain, UniProt Q1PD50 19-636); test: cross reactivity with GPeΔmuc, summary table

Binder	binding result (MARV Musoke GPe[change])	binding result (MARV Angola GPe[change])
CAN30G5 (antibody, V domains shown) VH: EVQLVESGGGLVQPKGSLKLSCAASGFAFNSYAMHWVCQAPGKGLEWVARIRIKSGNYATSYAGSVTDRFTVSRDDSQNLFYLQMNNLKTEDTAMYYCVREWEGAMDYWGQGTSVTVSS VL: DIVLTQSPLSLPVSLGDQASISCRSSQSLVHSNGNTYLHWYLQKPGQSPNLLIYKVSNRFSGVPDRFSGSGSGTDFTLKISRVEAEDLGVYFCSQSTHVPWTFGGGTKLEIK	binds	binds
CAN30G3 (antibody, V domains shown) VH: QVQLKESGPGLVAPSQSLSITCTVSGFSLTDYGITWIRQPPGKGLEWLGVIWGGGSAYYNLVLKSRLSISKDNSKSQVFLKMNSLQTDDTAMYYCAKHRTLITTAMDYWGQGISVTVSS VL: DVLMTQTPLSLPVSLGDQASISCRSSQNIVHSNGNTYLEWYLQKSGQSPKLLIYKVSNRFSGVPDRFSGSGSGTDFTLKISRVEAEDLGVYYCFQGSHFPWTFGGGTKLEIK	binds	binds
CAN30G4 (antibody, V domains shown) VH: EVKLVESGGGLVKSGGSLKLSCAVSGFTFSTYAMSWVRQIPEKRLEWVATISNGGSYIYYSDSVKGRFTISRDNAKNTLYLQMSSLRSEDTAMYYCARHRESYRYDWFAYWGQGTLVTVSA VL: DVLMTQTPLSLPVSLGDQASISCRSSQNIVHSDGNTYLEWYLQKPGQSPKLLIYKFSNRFSGVPDRFSGSGSGTDFTLKISRVEAEDLGVYYCFQGSHVPPTFGAGTKLELK	binds	binds
CAN54G2 (antibody, V domains shown) VH: QVQLQQSGTELVRPGTSVKISCKASGYDFTNFWLGWIKQRPGHGLEWIGDIYPGGDNTYYNEKFKGKVTLTADKSSNTAYMQFSSLTSEDSAVYFCFMILYTLDYWGQGTSVTVSS VL: not shown	binds	binds
CAN30G1 (antibody, V domains shown) VH: QIQLVQSGPELKKPGETVKISCKASGYTFTNYGMNWVKQAPGKGLKWMGWINTYTGKPTYVDDFKGRFAFSLETSANTAYLQINNLKNEDTATYFCESGGYDEDYWGQGTTLTVSS VL: ENVLTQSPAIMSASPGEKVTMTCSASSSVTYMHWYQQKSSTSPKLWIYDTSKLASGVPGRFSGSGSGNSYSLTISSMEAEDVATYYCFQGSGYPYTFGGGTKLEIK	binds	binds
CAN40G1 (antibody, V domains shown) VH: EVQLQQSGPELVKPGASVKISCRTSGYTFTEYTIHWVKQSRGKSLEWIGGINPNHGGTLYNQKFKVKATLTVDKSSSTAYMELRSLTSEDSAVYYCARFTYDYWGQGTTLTVSS VL: DIVLTQSPASLAVSLGQRASISCKASQSVDHDGDSYMNWYQQKPGQPPKLLIYATSNLESGIPARFSGSGSGTDFTLNIHPVEEEDAATYYCQQSYEVPLTFGAGTKLELK	binds	binds
